What was measured:
[1] = biological target: T1, BmILF (Bombyx mori, UniProt A0A1U9WZ16 1-382); assay: EMSA; EMSA: 20 ul, 2.5% glycerol, 0.05% NP-40, 5 mM MgCl2, 4 mM EDTA, RT 20 min; probes folded in 50 mM Tris-TAE pH 4.0 (also 6.0, 8.0). MST: NanoTemper buffer with 100 mM Tris pH 6.0, 2.93-6000 nM BmILF, 25 C; conditions: protein: recombinant, label: 5' biotin
T1 sequence: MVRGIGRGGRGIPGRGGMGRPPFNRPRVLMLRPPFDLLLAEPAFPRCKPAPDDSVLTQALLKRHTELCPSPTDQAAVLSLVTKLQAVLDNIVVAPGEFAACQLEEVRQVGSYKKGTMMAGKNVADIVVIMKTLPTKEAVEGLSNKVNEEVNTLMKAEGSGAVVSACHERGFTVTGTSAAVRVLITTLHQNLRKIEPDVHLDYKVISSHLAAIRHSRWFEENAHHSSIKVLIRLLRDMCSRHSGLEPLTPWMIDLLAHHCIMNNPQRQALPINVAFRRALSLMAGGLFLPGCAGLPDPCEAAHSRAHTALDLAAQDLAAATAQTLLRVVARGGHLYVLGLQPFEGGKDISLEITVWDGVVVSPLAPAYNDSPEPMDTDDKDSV

[2] = biological target: T1, BmILF; assay: EMSA; pH 4.0; EMSA: 20 ul, 2.5% glycerol, 0.05% NP-40, 5 mM MgCl2, 4 mM EDTA, RT 20 min; probes folded in 50 mM Tris-TAE pH 4.0 (also 6.0, 8.0). MST: NanoTemper buffer with 100 mM Tris pH 6.0, 2.93-6000 nM BmILF, 25 C; conditions: protein: recombinant; label: 5' biotin; no i-motif by CD
[3] = biological target: T1, BmILF; assay: EMSA; Hill fit; EMSA: 20 ul, 2.5% glycerol, 0.05% NP-40, 5 mM MgCl2, 4 mM EDTA, RT 20 min; probes folded in 50 mM Tris-TAE pH 4.0 (also 6.0, 8.0). MST: NanoTemper buffer with 100 mM Tris pH 6.0, 2.93-6000 nM BmILF, 25 C; conditions: protein: recombinant; label: 5' biotin; i-motif (folded by slow cooling at acidic pH)
[4] = biological target: T1, BmILF; assay: MST; pH 6.0, 50 nM probe; EMSA: 20 ul, 2.5% glycerol, 0.05% NP-40, 5 mM MgCl2, 4 mM EDTA, RT 20 min; probes folded in 50 mM Tris-TAE pH 4.0 (also 6.0, 8.0). MST: NanoTemper buffer with 100 mM Tris pH 6.0, 2.93-6000 nM BmILF, 25 C; conditions: protein: recombinant; label: Cy5; i-motif (folded at pH 4.0)

B1: BGIBMGA003213-G4 (structured_DNA)
DNA: GGGGGTGCGGGGGACGCGGGGGGCGCGGGG
binding result ([1]; G4): no binding

B2: BmPOUM2-Mut (ssDNA)
DNA: TTGTTGTACTGCTACTCGGATCACTCGAGCATCGTACTGG
binding result [2]: no binding

B3: BGIBMGA003213-Mut (ssDNA)
DNA: CATTGCGATATCAGCGTTATCAGTATCAAT
binding result [2]: no binding

B4: BmPOUM2-G4 (structured_DNA)
DNA: CCAGTGCGGGGCGCGAGGGGGCCGAGGGGCGGGGCAACAA
binding result ([1]; G4): no binding

B5: BmPOUM2-WT i-motif (EMSA) (structured_DNA)
DNA: TTGTTGCCCCGCCCCTCGGCCCCCTCGCGCCCCGCACTGG
Kd [3]: 119 nM

B6: BmPOUM2-WT i-motif (MST) (structured_DNA)
DNA: B5 DNA
Kd [4]: 430 nM

B7: Hairpin (structured_DNA)
DNA: CAGTGGCGGCCATCCGTTTAATATTACCGGATGGCCGCGCGAT
binding result ([1]; hairpin): no binding

B8: BGIBMGA003213-WT i-motif (MST) (structured_DNA)
DNA: CCCCGCGCCCCCCGCGTCCCCCGCACCCCC
Kd [4]: 367 nM

B9: BGIBMGA003213-WT i-motif (EMSA) (structured_DNA)
DNA: B8 DNA
Kd [3]: 78 nM

Reference: PMC7059380, “In vivo visualization of the i-motif DNA secondary structure in the Bombyx mori testis”
